Molecular target: microtubules polymerised from bovine brain tubulin (taxol-stabilised) (bovine) (UniProt Q6B856)
Experiment: stopped-flow mant-ADP release kinetics; kinesin·mant-ADP (1:1) mixed with varying microtubule concentrations plus MgATP, 298 K; fitted rate constants against microtubule concentration; apparent

N255K point mutant of the human monomeric kinesin K349 construct (from UniProt P33176 1-349) (domain or fragment)
K0.5 (apparent microtubule dissociation constant): 21.3 µM

— paper PMC4383081
